From patent US20230167179A1 (CENTRE NATIONAL DE LA RECHERCHE SCIENTIFIQUE, published 2023)

B1: 908.10E12C1 (antibody, IgG1, V domains shown)
VH: EVQLQQSGPELVKPGASVKISCKTSGYTFTEYTMHWVKQSHGKSLEWIGSINPNNGGTNYNQKFKGKATLTVDKSSNTAYMELRSLTSGDSAVYYCARTLYYAMDYWGQGTSVTVSS
VL: DIVMTQSPSSLAMSVGQKVTMSCKSSQSLLNSSNQKNYLAWYQQKPRQSPKLLVYFASTRDSGVPDRFLGSGSGTDFTLTINRVQAEDLADYFCQQHYILPPTFGAGTKLELK
B2: 908.9E11B6 (antibody, IgG1, V domains shown)
VH: QVQLKESGPGLVAPSQSLSITCTVSGFSLTSYGVHWVRQPPGKGLEWLGVIWAGGVTHYNSALMSRLNISKDNSQSQVFLKMNSLRTDDTAMYYCARGGALLRSHFDYWGQGTTLTVSS
VL: QAVVTQESALTTSPGETVTLTCRSSTGAVTTSNYANWVQEKPDHLFTGLIGGTNNRAPGVPARFSGSLIGDKAALTITGAQTEDEAIYHCALWYSNLWVFGGRTKLTVL
B3: 908.9G5B9 (antibody, V domains shown)
VH: EVQLQQSGAELVKPGASVKLSCTVSGFNITDTYIHWVKQRPEKGLEWIGRIDPANGNTKYDPKLQGKATITADTSSNTAYLQLSSLTSEDTAVYYCARDGTYVYYAMDYWGQGTSVTVSS
VL: DIQMTQSPASLSASVGETVTITCRASENIFIYLAWYQQKQGKSPQLLVYNAKTLAEGVPSRFSGSGSGTQFSLKINSLLPEDFGSYYCQHHYGIPFTFGSGTKLEIE
notes: Biotinylated in the Octet assay; fixed (capture) antibody in the sandwich ELISAs

What was measured:
[1] = target: recombinant IL-1RA (Homo sapiens (Human)) (UniProt P18510); experiment: Octet BLI, biotinylated antibody on streptavidin biosensor, IL-1RA at 22.2 nM
Sequence of recombinant IL-1RA (Homo sapiens (Human)) (P18510 26-177): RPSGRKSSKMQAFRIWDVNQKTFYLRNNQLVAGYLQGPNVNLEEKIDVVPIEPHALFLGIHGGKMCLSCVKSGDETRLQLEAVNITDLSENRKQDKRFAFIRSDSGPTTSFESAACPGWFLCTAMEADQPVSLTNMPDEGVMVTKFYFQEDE

[2] = target: recombinant IL-1RA (Homo sapiens (Human)) (UniProt P18510); experiment: Octet BLI, biotinylated antibody on streptavidin biosensor, IL-1RA at 14.8 nM
[3] = target: recombinant IL-1RA (Homo sapiens (Human)) (UniProt P18510); experiment: Octet BLI, comparison of KD
[4] = target: recombinant IL-1RA (Homo sapiens (Human)) (UniProt P18510); experiment: Octet BLI, biotinylated antibody on streptavidin biosensor, IL-1RA at 9.87 nM
[5] = target: recombinant IL-1RA (Homo sapiens (Human)) (UniProt P18510); experiment: Octet BLI, biotinylated antibody on streptavidin biosensor, IL-1RA at 50 nM
[6] = target: recombinant IL-1RA (Homo sapiens (Human)) (UniProt P18510); experiment: Octet BLI, biotinylated antibody on streptavidin biosensor, IL-1RA at 33.3 nM
[7] = target: recombinant IL-1RA (Homo sapiens (Human)) (UniProt P18510); experiment: Octet BLI, biotinylated antibody on streptavidin biosensor, IL-1RA in solution, 1:1 fit
recombinant IL-1RA [8] = target: T1, recombinant IL-1RA (Homo sapiens (Human), UniProt P18510 26-177); experiment: Octet BLI, biotinylated antibody on streptavidin biosensor, IL-1RA at 3.55 nM
T1 construct: also called IL-1RA antigen; IL-RA
T1 sequence (P18510 26-177): as above
Experimental: (§1) This antigen was tested at 12 nM at the first point, then diluted 1.5 times on 6 points for the first 4 antibodies.

recombinant IL-1RA [9] = target: T1, recombinant IL-1RA; experiment: Octet BLI, biotinylated antibody on streptavidin biosensor, IL-1RA in solution, 1:1 fit over 4 concentrations
Experimental: as §1
For each antibody, 4 concentrations were used to calculate the KD. The constant KD is related to the rate of complex formation (described by the rate constant of association, kon) and the rate of dissociation (described by the rate constant of dissociation, kdis), with KD=kdis/kon. A high affinity interaction is characterized by a low KD, rapid recognition (high kon) and stability of the complexes formed (low kdis). The R2 makes it possible to estimate the reliability of the results obtained (the closer it is to 1, the more reliable the results).

recombinant IL-1RA [10] = target: T1, recombinant IL-1RA; experiment: Octet BLI, biotinylated antibody on streptavidin biosensor, IL-1RA at 5.33 nM
Experimental: as §1

recombinant IL-1RA [11] = target: T1, recombinant IL-1RA; experiment: Octet BLI, biotinylated antibody on streptavidin biosensor, IL-1RA at 2.37 nM
Experimental: as §1

| Molecule | Response [1] | Response [2] | fold lower affinity than the antibodies selected in examples 2, 3 [3] | Response [4] | Response [5] | Response [6] | Kd [7] | koff [7] | kon [7] | Response (recombinant IL-1RA [8]) | Kd (recombinant IL-1RA [9]) | koff (recombinant IL-1RA [9]) | kon (recombinant IL-1RA [9]) | Response (recombinant IL-1RA [10]) | Response (recombinant IL-1RA [11]) |
| --- | --- | --- | --- | --- | --- | --- | --- | --- | --- | --- | --- | --- | --- | --- | --- |
| anti-IL-1RA antibody MAB280 from R&D Systems | 0.105 | 0.0761 | > 10 times | 0.0638 | 0.151 | 0.121 | 50.8 nM | 0.00718 s⁻¹ | 142000 M⁻¹ s⁻¹ | – | – | – | – | – | – |
| B1 | – | – | – | – | – | – | – | – | – | 0.15 | 1.76 nM | 0.000464 s⁻¹ | 264000 M⁻¹ s⁻¹ | 0.21 | 0.107 |
| B2 | – | – | – | – | – | – | – | – | – | 0.154 | 4.86 nM | 0.000865 s⁻¹ | 178000 M⁻¹ s⁻¹ | 0.229 | 0.101 |
| B3 | – | – | – | – | – | – | – | – | – | 0.132 | 3.84 nM | 0.00131 s⁻¹ | 342000 M⁻¹ s⁻¹ | 0.2 | 0.092 |
